Results from publication PMC2928679 (The EMBO Journal, 2010).

B1: FlagHis12-tagged mouse Ring1b (natural protein)
chain: MSQAVQTNGTQPLSKTWELSLYELQRTPQEAITDGLEIVVSPRSLHSELMCPICLDMLKNTMTTKECLHRFCADCIITALRSGNKECPTCRKKLVSKRSLRPDPNFDALISKIYPSRDEYEAHQERVLARINKHNNQQALSHSIEEGLKIQAMNRLQRGKKQQIENGSGAEDNGDSSHCSNASTHSNQEAGPSNKRTKTSDDSGLELDNNNAAVAIDPVMDGASEIELVFRPHPTLMEKDDSAQTRYIKTSGNATVDHLSKYLAVRLALEELRSKGESNQMNLDTASEKQYTIYIATASGQFTVLNGSFSLELVSEKYWKVNKPMELYYAPTKEHK
B2: CBX8-Flag purified from bacteria (natural protein)
chain: MELSAVGERVFAAEALLKRRIRKGRMEYLVKWKGWSQKYSTWEPEENILDARLLAAFEEREREMELYGPKKRGPKPKTFLLKAQAKAKAKTYEFRSDSARGIRIPYPGRSPQDLASTSRAREGLRNMGLSPPASSTSTSSTCRAEAPRDRDRDRDRDRERDRERERERERERERERERERGTSRVDDKPSSPGDSSKKRGPKPRKELPDPSQRPLGEPSAGLGEYLKGRKLDDTPSGAGKFPAGHSVIQLARRQDSDLVQCGVTSPSSAEATGKLAVDTFPARVIKHRAAFLEAKGQGALDPNGTRVRHGSGPPSSGGGLYRDMGAQGGRPSLIARIPVARILGDPEEESWSPSLTNLEKVVVTDVTSNFLTVTIKESNTDQGFFKEKR
B3: FlagHis12-tagged mouse Mel18 (natural protein)
chain: MHRTTRIKITELNPHLMCALCGGYFIDATTIVECLHSFCKTCIVRYLETNKYCPMCDVQVHKTRPLLSIRSDKTLQDIVYKLVPGLFKDEMKRRRDFYAAYPLTEVPNGSNEDRGEVLEQEKGALGDDEIVSLSIEFYEGVRDREEKKNLTENGDGDKEKTGVRFLRCPAAMTVMHLAKFLRNKMDVPSKYKVEILYEDEPLKEYYTLMDIAYIYPWRRNGPLPLKYRVQPACKRLTLPTVPTPSEGTNTSGASECESVSDKAPSPATLPATSSSLPSPATPSHGSPSSHGPPATHPTSPTPPSTAAGTTTATNGGTSNCLQTPSSTSRGRKMTVNGAPCPP
B4: FlagHis12-tagged mouse Bmi1 (natural protein)
chain: MHRTTRIKITELNPHLMCVLCGGYFIDATTIIECLHSFCKTCIVRYLETSKYCPICDVQVHKTRPLLNIRSDKTLQDIVYKLVPGLFKNEMKRRRDFYAAHPSADAANGSNEDRGEVADEEKRIITDDEIISLSIEFFDQSRLDRKVNKEKPKEEVNDKRYLRCPAAMTVMHLRKFLRSKMDIPNTFQIDVMYEEEPLKDYYTLMDIAYIYTWRRNGPLPLKYRVRPTCKRMKMSHQRDGLTNAGELESDSGSDKANSPAGGVPSTSSCLPSPSTPVQSPHPQFPHISSTMNGTSNSPSANHQSSFASRPRKSSLNGSSATSSG

target: GST-USP7 (human, UniProt Q93009-1 1-1102); assay: pull-down
Sequence (Q93009 whole entry): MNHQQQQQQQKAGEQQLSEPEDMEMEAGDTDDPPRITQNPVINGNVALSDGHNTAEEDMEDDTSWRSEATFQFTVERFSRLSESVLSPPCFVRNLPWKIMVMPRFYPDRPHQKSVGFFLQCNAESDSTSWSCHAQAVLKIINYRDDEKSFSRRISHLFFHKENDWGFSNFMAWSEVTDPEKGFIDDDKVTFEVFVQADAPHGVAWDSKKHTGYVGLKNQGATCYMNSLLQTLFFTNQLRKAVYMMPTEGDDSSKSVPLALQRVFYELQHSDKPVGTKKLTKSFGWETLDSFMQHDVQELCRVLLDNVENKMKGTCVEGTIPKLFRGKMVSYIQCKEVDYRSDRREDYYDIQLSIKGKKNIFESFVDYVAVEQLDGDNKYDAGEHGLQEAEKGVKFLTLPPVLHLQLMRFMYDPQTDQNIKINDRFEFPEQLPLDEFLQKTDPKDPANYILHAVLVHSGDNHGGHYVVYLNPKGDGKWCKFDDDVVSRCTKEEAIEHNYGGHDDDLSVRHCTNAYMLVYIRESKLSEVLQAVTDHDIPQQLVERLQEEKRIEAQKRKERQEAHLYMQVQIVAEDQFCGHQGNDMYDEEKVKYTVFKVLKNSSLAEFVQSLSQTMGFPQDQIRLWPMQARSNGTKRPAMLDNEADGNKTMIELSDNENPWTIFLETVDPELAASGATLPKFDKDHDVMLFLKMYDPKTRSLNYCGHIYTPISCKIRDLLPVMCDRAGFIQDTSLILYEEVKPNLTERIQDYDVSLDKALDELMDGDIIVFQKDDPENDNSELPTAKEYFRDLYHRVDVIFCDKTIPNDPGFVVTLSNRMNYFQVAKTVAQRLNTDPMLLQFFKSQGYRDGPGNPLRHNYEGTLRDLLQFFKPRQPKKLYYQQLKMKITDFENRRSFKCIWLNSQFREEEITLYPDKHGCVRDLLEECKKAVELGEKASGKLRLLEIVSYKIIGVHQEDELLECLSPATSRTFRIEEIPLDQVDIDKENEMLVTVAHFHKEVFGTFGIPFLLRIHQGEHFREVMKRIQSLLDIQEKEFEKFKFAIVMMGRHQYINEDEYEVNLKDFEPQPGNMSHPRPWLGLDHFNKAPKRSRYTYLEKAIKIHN

Binder	binding result
B1	binds
B2	binds
B3	binds
B4	binds
